According to US20250382355A1 (Merck Sharp & Dohme, published 2025):

Legend:
[1] = molecular target: T1, Biotinylated CoV2 Spike ECD PreS-AVI protein (SARS-CoV-2, UniProt P0DTC2 14-1208); assay: Octet binning; competitor 7A9
[2] = molecular target: T1, Biotinylated CoV2 Spike ECD PreS-AVI …; assay: Octet binning; competitor Std-D
[3] = molecular target: SARS-CoV-2 Alpha B.1.1.7 spike on pseudovirus (SARS-CoV-2); assay: cell-based or functional assay
[4] = molecular target: SARS-CoV-2 Omicron spike on pseudovirus (SARS-CoV-2); assay: cell-based or functional assay
[5] = molecular target: SARS-CoV-2 Beta B.1.351 spike on pseudovirus (SARS-CoV-2); assay: cell-based or functional assay
[6] = molecular target: SARS-CoV-2 Gamma P.1 spike on pseudovirus (SARS-CoV-2); assay: cell-based or functional assay
[7] = molecular target: T2, SARS-CoV-2 prefusion-stabilized spike protein (SARS-CoV-2-PreS) (SARS-CoV-2, UniProt P0DTC2 14-1208); assay: Biacore, apparent affinity
[8] = molecular target: T1, Biotinylated CoV2 Spike ECD PreS-AVI …; assay: Octet binning; competitor 15H1
[9] = molecular target: T1, Biotinylated CoV2 Spike ECD PreS-AVI …; assay: Octet binning; competitor Std-A
[10] = molecular target: T1, Biotinylated CoV2 Spike ECD PreS-AVI …; assay: Octet binning; competitor 1A11
[11] = molecular target: T2, SARS-CoV-2 prefusion-stabilized spike …; assay: ELISA
[12] = molecular target: T1, Biotinylated CoV2 Spike ECD PreS-AVI …; assay: Octet binning; competitor Std-B
[13] = molecular target: T1, Biotinylated CoV2 Spike ECD PreS-AVI …; assay: Octet binning; competitor 11F8
[14] = molecular target: T1, Biotinylated CoV2 Spike ECD PreS-AVI …; assay: Octet binning; competitor 13C8
[15] = molecular target: T1, Biotinylated CoV2 Spike ECD PreS-AVI …; assay: Octet binning; competitor 9B2
[16] = molecular target: T1, Biotinylated CoV2 Spike ECD PreS-AVI …; assay: Octet binning; competitor 15H7
[17] = molecular target: T1, Biotinylated CoV2 Spike ECD PreS-AVI …; assay: Octet binning; competitor 8E9
[18] = molecular target: T1, Biotinylated CoV2 Spike ECD PreS-AVI …; assay: Octet binning; competitor 20D11
[19] = molecular target: T1, Biotinylated CoV2 Spike ECD PreS-AVI …; assay: Octet binning; competitor 19B8

B1: 19E10 VHH-Fc (Fc fusion)
chain: QVQLVESGGGLVQPGGSLRLSCVASGSTISINSMGWYRQAPGKAREMVATITNDGPIKYADPVKGRFTISRDNPKNTVYLQMNSLKPEDTAVYYCVADRAYWLAGEWEYWGQGTQVTVSS
binning response [1]: 0.3
binning response [2]: 0.06
pseudovirus neutralization IC50 [3]: 7 nM
pseudovirus neutralization IC50 [4]: 309 nM
pseudovirus neutralization IC50 [5]: 3.1 nM
pseudovirus neutralization IC50 [6]: 5.9 nM
Kd [7]: < 0.2 nM
binning response [8]: 0.12
binning response [9]: 0.26
binning response [10]: 0.08
EC50 [11]: 0.03 nM
binning response [12]: 0.22
binning response [13]: 0.12
binning response [14]: 0.11
binning response [15]: 0.11
binning response [16]: 0.11
binning response [17]: 0.09

B2: 9B2 VHH-Fc (Fc fusion)
chain: QVQLVESGGGLVQPGGSLRLSCAASGFTLDNYAIGWFRQAPGKEREGVSCISSSDGDTQYADSVKGRFTISRDNAKNTVYLQMNSLKPEDTAVYYCAVEKVYARSWFFHLCSELDFGSWGQGTQVTVSS
binning response [1]: 0.36
binning response [2]: 0.05
pseudovirus neutralization IC50 [3]: 22 nM
pseudovirus neutralization IC50 [4]: 52 nM
pseudovirus neutralization IC50 [5]: 4.2 nM
pseudovirus neutralization IC50 [6]: 21 nM
Kd [7]: < 0.2 nM
binning response [8]: 0.13
binning response [9]: 0.32
binning response [10]: 0.1
EC50 [11]: 0.1 nM
binning response [12]: 0.32
binning response [13]: 0.11
binning response [14]: 0.12
binning response [15]: 0.1
binning response [16]: 0.11
binning response [17]: 0.09

B3: 5A6 VHH-Fc (Fc fusion)
chain: QVQLVESGGGLAQAGGSLRLSCATSGLTFSMSAMGWFRQAPGNEREFVGVINWNGGSSRYADSVRGRFTISRDNAKNTVYLQMNSLKPEDTGVYYCAADALNIGTGEVNPRLYDYWGQGTQVMVSS
binning response [1]: 0.37
binning response [2]: 0.03
pseudovirus neutralization IC50 [3]: 26 nM
pseudovirus neutralization IC50 [5]: 54 nM
pseudovirus neutralization IC50 [6]: 3.1 nM
Kd [7]: < 0.2 nM
binning response [8]: 0.12
binning response [9]: 0.39
binning response [10]: 0.09
EC50 [11]: 0.14 nM
binning response [12]: 0.35
binning response [13]: 0.09
binning response [14]: 0.09
binning response [15]: 0.11
binning response [16]: 0.1
binning response [17]: 0.09

B4: 16H7 VHH-Fc (Fc fusion)
chain: QVQLVESGGGLVQAGGSLRLSCAASGRAFSKDTMGWFRQAPGKEREFVAVISASGDSTYYADFVKGRFTISRDNAKNTEYLQMNSLKPEDTAVYHCAADGARAYYSINAHRYSWAYNYWGQGTQVTVSS
binning response [18]: 0.56
Kd [7]: 3 nM
binning response [19]: 0.19
EC50 [11]: 0.08 nM

B5: 11F5 VHH-Fc (Fc fusion)
chain: QVQLVESGGGAVQAGDSLRLSCTASGRTFSTYAVGWFRQAPGKERELLAAITGSGRNPYYPDSLKGRFTISREYAKLPVYLQMNSLKPEDTAVYYCAARRGAIATMPLDYDHWGQGTQVTVSS
binning response [18]: 0.1
Kd [7]: < 0.2 nM
binning response [19]: 0.52
EC50 [11]: 0.12 nM

B6: 19B8 VHH-Fc (Fc fusion)
chain: QVQLVESGGGLVQAGGSLRLSCAASGRTFTNYAMGWFRQAPGKEREFVAAISWSGGGTNYADSVKGRFTISRDNAKNTVYLQMNSPKPEDTAVYYCATTLGYYGSSSRLYEYWGQGTQVTVSS
binning response [18]: 0.48
pseudovirus neutralization IC50 [4]: 47 nM
Kd [7]: 1.1 nM
binning response [19]: 0.08
EC50 [11]: 0.06 nM

B7: 10B8 VHH-Fc (Fc fusion)
chain: QVQLVESGGGLVQPGGSLRLSCAASGITLDYYAIAWFRQAPGKEREGVSCFCSSDGDIRYADSVKGRFTISRDNAKNTVYLQMNSLKPEDTAVYYCATERVYSSTWFFHRYSELDFGSWGRGTQVTVSS
binning response [1]: 0.42
binning response [2]: 0.05
pseudovirus neutralization IC50 [3]: 0.38 nM
pseudovirus neutralization IC50 [4]: 4.1 nM
pseudovirus neutralization IC50 [5]: 0.23 nM
pseudovirus neutralization IC50 [6]: 0.21 nM
Kd [7]: < 0.2 nM
binning response [8]: 0.12
binning response [9]: 0.39
binning response [10]: 0.1
EC50 [11]: 1.35 nM
binning response [12]: 0.36
binning response [13]: 0.1
binning response [14]: 0.12
binning response [15]: 0.12
binning response [16]: 0.12
binning response [17]: 0.09

B8: 20D11 VHH-Fc (Fc fusion)
chain: QVQLVESGGGLVQAGGSLRLSCAASGRTSSIYSVGWFRQAPGKERELVAGITWSGGTTYYSDSVKGRFTISRDNAKNTVNLQMNNLKPEDTAIYYCAVDRYSMTMSARDYDYWGQGTQVTVSS
binning response [18]: 0.04
Kd [7]: < 0.2 nM
binning response [19]: 0.43
EC50 [11]: 0.62 nM

B9: 5G11 VHH-Fc (Fc fusion)
chain: QVQLVESGGGLVQAGGSLRLSCAASGRTFSIYAVGWFRQAPGKERDFVAGITWSGGTTYYSDSVKGRFTISRDNAKNTVYLQMNNLKPEDTAIYYCAVDTYSMTLSARSYDYWGQGTQVTVSS
binning response [18]: 0.05
Kd [7]: 1.5 nM
binning response [19]: 0.4
EC50 [11]: 0.4 nM

B10: 14F3 VHH-Fc (Fc fusion)
chain: QVQLVESGGGLVQAGGSLRLSCAASGRTSSIYGVGWFRQAPGKERELVALITWSGGTTYYSDSVKGRFTISKDNAKNTVFLQMNNLKPEDTAIYYCAVDTYSMTMSARDYEYWGQGTQVTVSS
binning response [18]: 0.04
Kd [7]: < 0.2 nM
binning response [19]: 0.46
EC50 [11]: 0.05 nM

B11: 1A11 VHH-Fc (Fc fusion)
chain: QVQLVESGGGLVQAGGSLRLSCEVSGSIYSINSMGWYRQAPGKQRELVAGIVSDGRINYADSVKGRFTISRAKNTVYLQMNSLKPEDTAVYYCAADRAFVYAGDYDYLGQGTQVTVSS
binning response [1]: 0.38
binning response [2]: 0.06
pseudovirus neutralization IC50 [3]: 6.6 nM
pseudovirus neutralization IC50 [4]: 42 nM
pseudovirus neutralization IC50 [5]: 4.1 nM
pseudovirus neutralization IC50 [6]: 6.4 nM
Kd [7]: < 0.2 nM
binning response [8]: 0.14
binning response [9]: 0.35
binning response [10]: 0.1
EC50 [11]: 0.18 nM
binning response [12]: 0.34
binning response [13]: 0.13
binning response [14]: 0.11
binning response [15]: 0.13
binning response [16]: 0.14
binning response [17]: 0.1

B12: 6A1 VHH-Fc (Fc fusion)
chain: QVQLVESGGGLVQAGGSLRLSCTASGNIFSVNVMGWHRQAPGKRRELVAALTNDGRRNYADSVKGRFTISRDNAKNTIYLEMNSLKPEDTAVYYCGTGTLESGFNSWGQGLQVTVSS
binning response [18]: 0.37
Kd [7]: 1.6 nM
binning response [19]: 0.4
EC50 [11]: 0.44 nM
